Changes are numbered by the printed parent chain. Numbered stars: 1 amine (or outer) side, 2 acyl side, 3 side chain; on linkers, the order of the positions; unused ones are H or OH. Square brackets hold non-standard residues; d marks the D form. Side chains are listed from the residue outwards. Ends that are not written are not given here. * marks the point of attachment. C20 diacid = O=C(O)CCCCCCCCCCCCCCCCCCC(=O)*; γGlu = O=C(O)[C@H](CCC(=O)[*:2])N[*:1]; AEEA = NCCOCCOCC(=O)O; Aib = CC(C)(N)C(=O)O
T1: human gastric inhibitory peptide receptor (GIPR) (human, UniProt P48546 22-466)
T1 sequence (looked up): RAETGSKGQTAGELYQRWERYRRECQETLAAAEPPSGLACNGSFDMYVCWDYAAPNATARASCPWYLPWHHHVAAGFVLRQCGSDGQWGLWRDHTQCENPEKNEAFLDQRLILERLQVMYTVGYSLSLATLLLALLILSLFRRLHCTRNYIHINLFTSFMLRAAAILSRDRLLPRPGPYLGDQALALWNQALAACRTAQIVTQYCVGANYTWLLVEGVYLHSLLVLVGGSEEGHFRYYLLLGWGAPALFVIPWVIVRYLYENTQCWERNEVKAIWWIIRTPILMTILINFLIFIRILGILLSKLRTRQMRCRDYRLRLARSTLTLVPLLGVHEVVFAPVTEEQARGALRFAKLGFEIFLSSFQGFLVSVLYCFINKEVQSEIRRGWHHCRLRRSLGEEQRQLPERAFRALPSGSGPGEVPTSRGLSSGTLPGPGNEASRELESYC

B1: Example 253 (peptide)
peptide: YXEGTFTSDYSILLDKKAQAAFIEYLIEGGPSSGAPPPS
modifications: Aib2, (2-[2-(2-Amino-ethoxy)-ethoxy]-acetyl)2-(γ-Glu)-CO-(CH2)18-CO2H on K17, C-terminal NH2
B2: Example 254 (peptide)
peptide: B1 peptide with A20Q
modifications: Aib2, (2-[2-(2-Amino-ethoxy)-ethoxy]-acetyl)2-(γ-Glu)-CO-(CH2)18-CO2H on K17, C-terminal NH2
B3: Example 257 (peptide)
peptide: B1 peptide with A20R
modifications: Aib2, (2-[2-(2-Amino-ethoxy)-ethoxy]-acetyl)2-(γ-Glu)-CO-(CH2)18-CO2H on K17, C-terminal NH2
B4: Example 256 (peptide)
peptide: B1 peptide with A20K
modifications: Aib2, (2-[2-(2-Amino-ethoxy)-ethoxy]-acetyl)2-(γ-Glu)-CO-(CH2)18-CO2H on K17, C-terminal NH2
B5: Example 255 (peptide)
peptide: B1 peptide with A20H
modifications: Aib2, (2-[2-(2-Amino-ethoxy)-ethoxy]-acetyl)2-(γ-Glu)-CO-(CH2)18-CO2H on K17, C-terminal NH2
B6: Example 247 (peptide)
peptide: YXEGTXTSDYSIXLDXKAQXEFIXYLIEGGPSSGAPPPS
modifications: Aib2, αMeF(2F)6, Aib13, Orn16, (2-[2-(2-Amino-ethoxy)-ethoxy]-acetyl)2-(γ-Glu)-CO-(CH2)16-CO2H on K17, Aib20, D-Glu24, C-terminal NH2
B7: Example 249 (peptide)
peptide: B6 peptide
modifications: Aib2, αMeF(2F)6, Nle13, Orn16, (2-[2-(2-Amino-ethoxy)-ethoxy]-acetyl)2-(γ-Glu)-CO-(CH2)16-CO2H on K17, Aib20, D-Glu24, C-terminal NH2
B8: Example 248 (peptide)
peptide: B6 peptide with X13L
modifications: Aib2, αMeF(2F)6, Orn16, (2-[2-(2-Amino-ethoxy)-ethoxy]-acetyl)2-(γ-Glu)-CO-(CH2)16-CO2H on K17, Aib20, D-Glu24, C-terminal NH2
B9: Example 250 (peptide)
peptide: B6 peptide
modifications: Aib2, αMeF(2F)6, Aib13, Orn16, (2-[2-(2-Amino-ethoxy)-ethoxy]-acetyl)2-(γ-Glu)-CO-(CH2)18-CO2H on K17, Aib20, D-Glu24, C-terminal NH2
B10: Example 260 (peptide)
peptide: Y[Aib]EGTFTSDHSILLDKK([AEEA-AEEA-γGlu-C20 diacid])AQ[Aib]AFIEYLIEGGPSSGAPPPS-NH2
modifications: N-terminus assumed
SMILES: CC[C@H](C)[C@H](NC(=O)[C@H](CC(C)C)NC(=O)[C@H](Cc1ccc(O)cc1)NC(=O)[C@H](CCC(=O)O)NC(=O)[C@@H](NC(=O)[C@H](Cc1ccccc1)NC(=O)[C@H](C)NC(=O)C(C)(C)NC(=O)[C@H](CCC(N)=O)NC(=O)[C@H](C)NC(=O)[C@H](CCCCNC(=O)COCCOCCNC(=O)COCCOCCNC(=O)CC[C@H](NC(=O)CCCCCCCCCCCCCCCCCCC(=O)O)C(=O)O)NC(=O)[C@H](CCCCN)NC(=O)[C@H](CC(=O)O)NC(=O)[C@H](CC(C)C)NC(=O)[C@H](CC(C)C)NC(=O)[C@@H](NC(=O)[C@H](CO)NC(=O)[C@H](Cc1c[nH]cn1)NC(=O)[C@H](CC(=O)O)NC(=O)[C@H](CO)NC(=O)[C@@H](NC(=O)[C@H](Cc1ccccc1)NC(=O)[C@@H](NC(=O)CNC(=O)[C@H](CCC(=O)O)NC(=O)C(C)(C)NC(=O)[C@@H](N)Cc1ccc(O)cc1)[C@@H](C)O)[C@@H](C)O)[C@@H](C)CC)[C@@H](C)CC)C(=O)N[C@@H](CCC(=O)O)C(=O)NCC(=O)NCC(=O)N1CCC[C@H]1C(=O)N[C@@H](CO)C(=O)N[C@@H](CO)C(=O)NCC(=O)N[C@@H](C)C(=O)N1CCC[C@H]1C(=O)N1CCC[C@H]1C(=O)N1CCC[C@H]1C(=O)N[C@@H](CO)C(N)=O
B11: Example 258 (peptide)
peptide: Y[Aib]EGTFTSDYSILLDEK([AEEA-AEEA-γGlu-C20 diacid])AQKAFIEYLIEGGPSSGAPPPS-NH2
modifications: N-terminus assumed
SMILES: CC[C@H](C)[C@H](NC(=O)[C@H](CC(C)C)NC(=O)[C@H](Cc1ccc(O)cc1)NC(=O)[C@H](CCC(=O)O)NC(=O)[C@@H](NC(=O)[C@H](Cc1ccccc1)NC(=O)[C@H](C)NC(=O)[C@H](CCCCN)NC(=O)[C@H](CCC(N)=O)NC(=O)[C@H](C)NC(=O)[C@H](CCCCNC(=O)COCCOCCNC(=O)COCCOCCNC(=O)CC[C@H](NC(=O)CCCCCCCCCCCCCCCCCCC(=O)O)C(=O)O)NC(=O)[C@H](CCC(=O)O)NC(=O)[C@H](CC(=O)O)NC(=O)[C@H](CC(C)C)NC(=O)[C@H](CC(C)C)NC(=O)[C@@H](NC(=O)[C@H](CO)NC(=O)[C@H](Cc1ccc(O)cc1)NC(=O)[C@H](CC(=O)O)NC(=O)[C@H](CO)NC(=O)[C@@H](NC(=O)[C@H](Cc1ccccc1)NC(=O)[C@@H](NC(=O)CNC(=O)[C@H](CCC(=O)O)NC(=O)C(C)(C)NC(=O)[C@@H](N)Cc1ccc(O)cc1)[C@@H](C)O)[C@@H](C)O)[C@@H](C)CC)[C@@H](C)CC)C(=O)N[C@@H](CCC(=O)O)C(=O)NCC(=O)NCC(=O)N1CCC[C@H]1C(=O)N[C@@H](CO)C(=O)N[C@@H](CO)C(=O)NCC(=O)N[C@@H](C)C(=O)N1CCC[C@H]1C(=O)N1CCC[C@H]1C(=O)N1CCC[C@H]1C(=O)N[C@@H](CO)C(N)=O
B12: Example 259 (peptide)
peptide: Y[Aib]EGTFTSDYSILLDEK([AEEA-AEEA-γGlu-C20 diacid])AQ[Aib]AFIEYLIEGGPSSGAPPPS-NH2
modifications: N-terminus assumed
SMILES: CC[C@H](C)[C@H](NC(=O)[C@H](CC(C)C)NC(=O)[C@H](Cc1ccc(O)cc1)NC(=O)[C@H](CCC(=O)O)NC(=O)[C@@H](NC(=O)[C@H](Cc1ccccc1)NC(=O)[C@H](C)NC(=O)C(C)(C)NC(=O)[C@H](CCC(N)=O)NC(=O)[C@H](C)NC(=O)[C@H](CCCCNC(=O)COCCOCCNC(=O)COCCOCCNC(=O)CC[C@H](NC(=O)CCCCCCCCCCCCCCCCCCC(=O)O)C(=O)O)NC(=O)[C@H](CCC(=O)O)NC(=O)[C@H](CC(=O)O)NC(=O)[C@H](CC(C)C)NC(=O)[C@H](CC(C)C)NC(=O)[C@@H](NC(=O)[C@H](CO)NC(=O)[C@H](Cc1ccc(O)cc1)NC(=O)[C@H](CC(=O)O)NC(=O)[C@H](CO)NC(=O)[C@@H](NC(=O)[C@H](Cc1ccccc1)NC(=O)[C@@H](NC(=O)CNC(=O)[C@H](CCC(=O)O)NC(=O)C(C)(C)NC(=O)[C@@H](N)Cc1ccc(O)cc1)[C@@H](C)O)[C@@H](C)O)[C@@H](C)CC)[C@@H](C)CC)C(=O)N[C@@H](CCC(=O)O)C(=O)NCC(=O)NCC(=O)N1CCC[C@H]1C(=O)N[C@@H](CO)C(=O)N[C@@H](CO)C(=O)NCC(=O)N[C@@H](C)C(=O)N1CCC[C@H]1C(=O)N1CCC[C@H]1C(=O)N1CCC[C@H]1C(=O)N[C@@H](CO)C(N)=O
B13: Example 336 (peptide)
peptide: B1 peptide with Y1X, F6X, L13X, A20X
modifications: not fully specified; D-Tyr1, Aib2, αMeF(2F)6, αMeL13, (2-[2-(2-Amino-ethoxy)-ethoxy]-acetyl)2-(γ-Glu)-CO-(CH2)18-CO2H on K17, Aib20, C-terminal NH2
B14: Example 359 (peptide)
peptide: XXEGTFTSDYSIXLDXKAQXEFVEYLIAGGPSSGAPPPS
modifications: D-Tyr1, Aib2, αMeL13, Orn16, (2-[2-(2-Amino-ethoxy)-ethoxy]-acetyl)2-(γ-Glu)-CO-(CH2)18-CO2H on K17, Aib20, C-terminal NH2

Target: human GLP-1 receptor (GLP-1R) (human, UniProt P43220 24-463)
Assay: cell-based or functional assay

Binder | hGLP1R cAMP EC50 ratio | hGLP1R cAMP Rel EC50
B1 | 0.638 | 0.109 nM
B2 | 1.26 | 0.0553 nM
B3 | 0.895 | 0.0779 nM
B4 | 1.38 | 0.0506 nM
B5 | 1.71 | 0.0407 nM
B6 | 0.614 | 0.0491 nM
B7 | 0.778 | 0.0446 nM
B8 | 0.8 | 0.0428 nM
B9 | 0.985 | 0.0306 nM
B10 | 0.171 | 0.408 nM
B11 | 0.401 | 0.174 nM
B12 | 0.482 | 0.145 nM

Target: T1, human gastric inhibitory peptide …
Assay: cell-based or functional assay

Binder | hGIPR cAMP EC50 ratio | hGIPR cAMP Rel EC50
B1 | 0.684 | 0.219 nM
B2 | 0.695 | 0.215 nM
B3 | 0.316 | 0.474 nM
B4 | 0.233 | 0.643 nM
B5 | 1.47 | 0.102 nM
B6 | 2.58 | 0.0622 nM
B7 | 3.84 | 0.0437 nM
B13 |  | 0.0312 nM
B8 | 5.08 | 0.0328 nM
B9 | 4.27 | 0.0376 nM
B10 | 0.242 | 0.617 nM
B14 |  | 0.172 nM
B11 | 0.0616 | 2.43 nM
B12 | 0.582 | 0.257 nM
